Biological target: T1, PUF4 RNA-binding domain (Saccharomyces cerevisiae, UniProt P25339 537-888)
T1 sequence: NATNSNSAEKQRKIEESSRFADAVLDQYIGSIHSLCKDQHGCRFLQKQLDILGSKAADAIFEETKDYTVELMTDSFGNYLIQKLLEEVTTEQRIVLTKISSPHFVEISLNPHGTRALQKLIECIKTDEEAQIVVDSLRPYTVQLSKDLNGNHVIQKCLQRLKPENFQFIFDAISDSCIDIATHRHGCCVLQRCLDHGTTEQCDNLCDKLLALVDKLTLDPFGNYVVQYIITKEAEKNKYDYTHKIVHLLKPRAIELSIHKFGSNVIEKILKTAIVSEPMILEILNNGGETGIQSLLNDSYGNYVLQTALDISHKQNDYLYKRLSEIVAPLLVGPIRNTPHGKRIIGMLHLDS
Test: Mg; RNA-MaP; 20 mM Na-HEPES pH 7.4, 30 mM KOAc, 0.75 mM MgCl2, 0.1% Tween-20, 5% glycerol, 0.1 mg/mL BSA, 2 mM DTT; 25 C; 0.0125-409.6 nM protein
Settings: tags: N-His6-TEV cleaved; C-SNAP kept, Cy3B-labelled; label: tethered on chip by stalled RNA polymerase

Binder	Kd [nM]
Ic_S2_P5E.1_K5.1_C5.1_H5.1_A5.1_[T5G]_[A7C]_F5.1_[T9A]_T5.1 (ssRNA) RNA: UUUGAUUAAUAUGAUAUCGUUCUUUCUUGUAGUCUAAUUCUUUCUCGAUAUCAUAUUAAUCUUU	6.4
Ic_S2_P5E.1_K5.1_C5.1_H5.1_A5.1_[T6A]_[A7C]_F5.1_[T9A]_[A10G]_T5.1 (ssRNA) RNA: UUUGAUUAAUAUGAUAUCGUUCUUUCUUGUAUACUAGUUCUUUCUCGAUAUCAUAUUAAUCUUU	1.41
Ic_S2_P5E.1_K5.1_C5.1_H5.1_A5.1_[T6A]_[A7G]_F5.1_[T8C]_[T9C]_[A10T]_T5.1 (ssRNA) RNA: UUUGAUUAAUAUGAUAUCGUUCUUUCUUGUAUAGCCUUUCUUUCUCGAUAUCAUAUUAAUCUUU	61.4
Ic_S2_P5E.1_K5.1_C5.1_H5.1_A5.1_[T5G]_[T6C]_F5.1_[T9C]_T5.1 (ssRNA) RNA: UUUGAUUAAUAUGAUAUCGUUCUUUCUUGUAGCAUCAUUCUUUCUCGAUAUCAUAUUAAUCUUU	87.8
UCUCUUGGUAUAUUGUCUCUU (ssRNA) [Ib_S1_P4E.1_K4.1_C4.1_H4.1_[T1G]_A4.1_F4.1_[A9G]_T4.1]	690
Ic_S2_P5E.1_K5.1_C5.1_H5.1_A5.1_[T5C]_[T6C]_[A7G]_F5.1_[T8G]_[A10C]_T5.1 (ssRNA) RNA: UUUGAUUAAUAUGAUAUCGUUCUUUCUUGUACCGGUCUUCUUUCUCGAUAUCAUAUUAAUCUUU	> 2300
Ic_S2_P5E.1_K5.1_C5.1_H5.1_A5.1_[T5C]_[T6A]_F5.1_[T8A]_[T9A]_[A10T]_T5.1 (ssRNA) RNA: UUUGAUUAAUAUGAUAUCGUUCUUUCUUGUACAAAAUUUCUUUCUCGAUAUCAUAUUAAUCUUU	8.8
Ic_S2_P5E.1_K5.1_C5.1_H5.1_A5.1_[T6C]_[A7G]_F5.1_[T9A]_[A10C]_T5.1 (ssRNA) RNA: UUUGAUUAAUAUGAUAUCGUUCUUUCUUGUAUCGUACUUCUUUCUCGAUAUCAUAUUAAUCUUU	28
Ic_S2_P5E.1_K5.1_C5.1_H5.1_A5.1_[T5C]_[T6C]_[A7C]_F5.1_[T8G]_[T9C]_[A10C]_T5.1 (ssRNA) RNA: UUUGAUUAAUAUGAUAUCGUUCUUUCUUGUACCCGCCUUCUUUCUCGAUAUCAUAUUAAUCUUU	1000
Ic_S2_P5E.1_K5.1_C5.1_H5.1_A5.1_[T5C]_[T6C]_F5.1_[T8C]_[T9C]_[A10C]_T5.1 (ssRNA) RNA: UUUGAUUAAUAUGAUAUCGUUCUUUCUUGUACCACCCUUCUUUCUCGAUAUCAUAUUAAUCUUU	347
Ic_S2_P5E.1_K5.1_C5.1_H5.1_A5.1_[T6G]_[A7T]_F5.1_[T9C]_[A10C]_T5.1 (ssRNA) RNA: UUUGAUUAAUAUGAUAUCGUUCUUUCUUGUAUGUUCCUUCUUUCUCGAUAUCAUAUUAAUCUUU	11.9
Ic_S2_P5E.1_K5.1_C5.1_H5.1_A5.1_[T6G]_[A7C]_F5.1_[T8C]_[T9C]_[A10T]_T5.1 (ssRNA) RNA: UUUGAUUAAUAUGAUAUCGUUCUUUCUUGUAUGCCCUUUCUUUCUCGAUAUCAUAUUAAUCUUU	582
Ic_S2_P5E.1_K5.1_C5.1_H5.1_A5.1_[T5A]_[A7T]_F5.1_[T8A]_[T9C]_[A10G]_T5.1 (ssRNA) RNA: UUUGAUUAAUAUGAUAUCGUUCUUUCUUGUAAUUACGUUCUUUCUCGAUAUCAUAUUAAUCUUU	761
Ic_S2_P5E.1_K5.1_C5.1_H5.1_A5.1_[T6A]_F5.1_[T8C]_[T9G]_[A10T]_T5.1 (ssRNA) RNA: UUUGAUUAAUAUGAUAUCGUUCUUUCUUGUAUAACGUUUCUUUCUCGAUAUCAUAUUAAUCUUU	15
Ic_S2_P5E.1_K5.1_C5.1_H5.1_A5.1_[T5C]_[A7G]_F5.1_[T9A]_[A10T]_T5.1 (ssRNA) RNA: UUUGAUUAAUAUGAUAUCGUUCUUUCUUGUACUGUAUUUCUUUCUCGAUAUCAUAUUAAUCUUU	2.45
UCUCUUUUUAUAUUAUCUCUU (ssRNA) [Ia_S1_P4E.1_K4.1_C4.1_H4.1_[G2T]_A4.1_F4.1_T4.1]	655
UCUCUUCGUAUAUUGUCUCUU (ssRNA) [Ib_S1_P4E.1_K4.1_C4.1_H4.1_[T1C]_A4.1_F4.1_[A9G]_T4.1]	663
Ic_S2_P5E.1_K5.1_C5.1_H5.1_A5.1_[T5C]_[T6A]_[A7G]_F5.1_[T9C]_[A10C]_T5.1 (ssRNA) RNA: UUUGAUUAAUAUGAUAUCGUUCUUUCUUGUACAGUCCUUCUUUCUCGAUAUCAUAUUAAUCUUU	13.5
Ic_S2_P5E.1_K5.1_C5.1_H5.1_A5.1_[T5C]_F5.1_[T8C]_[T9C]_[A10C]_T5.1 (ssRNA) RNA: UUUGAUUAAUAUGAUAUCGUUCUUUCUUGUACUACCCUUCUUUCUCGAUAUCAUAUUAAUCUUU	245
Ic_S2_P5E.1_K5.1_C5.1_H5.1_A5.1_[T5A]_[T6C]_[A7C]_F5.1_[T8A]_[A10G]_T5.1 (ssRNA) RNA: UUUGAUUAAUAUGAUAUCGUUCUUUCUUGUAACCAUGUUCUUUCUCGAUAUCAUAUUAAUCUUU	751
Ic_S2_P5E.1_K5.1_C5.1_H5.1_A5.1_[T5A]_[A7G]_F5.1_[T8C]_[A10T]_T5.1 (ssRNA) RNA: UUUGAUUAAUAUGAUAUCGUUCUUUCUUGUAAUGCUUUUCUUUCUCGAUAUCAUAUUAAUCUUU	423
Ic_S2_P5E.1_K5.1_C5.1_H5.1_A5.1_[T5G]_[A7C]_F5.1_[T8A]_[A10G]_T5.1 (ssRNA) RNA: UUUGAUUAAUAUGAUAUCGUUCUUUCUUGUAGUCAUGUUCUUUCUCGAUAUCAUAUUAAUCUUU	450
Ic_S2_P5E.1_K5.1_C5.1_H5.1_A5.1_[T5A]_[T6C]_[A7T]_F5.1_[T9G]_[A10T]_T5.1 (ssRNA) RNA: UUUGAUUAAUAUGAUAUCGUUCUUUCUUGUAACUUGUUUCUUUCUCGAUAUCAUAUUAAUCUUU	304

Binder	Kd [nM]
Ic_S2_P5E.1_K5.1_C5.1_H5.1_A5.1_[T5G]_[A7C]_F5.1_[T8G]_[T9C]_[A10C]_T5.1 (ssRNA) RNA: UUUGAUUAAUAUGAUAUCGUUCUUUCUUGUAGUCGCCUUCUUUCUCGAUAUCAUAUUAAUCUUU	1490
Ic_S2_P5E.1_K5.1_C5.1_H5.1_A5.1_[T6A]_F5.1_[T8A]_[T9A]_T5.1 (ssRNA) RNA: UUUGAUUAAUAUGAUAUCGUUCUUUCUUGUAUAAAAAUUCUUUCUCGAUAUCAUAUUAAUCUUU	34.6
Ic_S2_P5E.1_K5.1_C5.1_H5.1_A5.1_[T5C]_[T6A]_[A7C]_F5.1_[T8A]_[A10G]_T5.1 (ssRNA) RNA: UUUGAUUAAUAUGAUAUCGUUCUUUCUUGUACACAUGUUCUUUCUCGAUAUCAUAUUAAUCUUU	114
Ic_S2_P5E.1_K5.1_C5.1_H5.1_A5.1_[T5A]_[A7T]_F5.1_[T9C]_[A10G]_T5.1 (ssRNA) RNA: UUUGAUUAAUAUGAUAUCGUUCUUUCUUGUAAUUUCGUUCUUUCUCGAUAUCAUAUUAAUCUUU	108
UCUCUUAGUAUAUUGUCUCUU (ssRNA) [Ib_S1_P4E.1_K4.1_C4.1_H4.1_[T1A]_A4.1_F4.1_[A9G]_T4.1]	631
Ic_S2_P5E.1_K5.1_C5.1_H5.1_A5.1_[T6C]_[A7T]_F5.1_[T8A]_T5.1 (ssRNA) RNA: UUUGAUUAAUAUGAUAUCGUUCUUUCUUGUAUCUAUAUUCUUUCUCGAUAUCAUAUUAAUCUUU	3.38
Ic_S2_P5E.1_K5.1_C5.1_H5.1_A5.1_[T6G]_[A7T]_F5.1_[T8G]_[T9C]_[A10C]_T5.1 (ssRNA) RNA: UUUGAUUAAUAUGAUAUCGUUCUUUCUUGUAUGUGCCUUCUUUCUCGAUAUCAUAUUAAUCUUU	49
Ic_S2_P5E.1_K5.1_C5.1_H5.1_A5.1_[T5A]_[A7T]_F5.1_[T9G]_[A10C]_T5.1 (ssRNA) RNA: UUUGAUUAAUAUGAUAUCGUUCUUUCUUGUAAUUUGCUUCUUUCUCGAUAUCAUAUUAAUCUUU	70.7
Ic_S2_P5E.1_K5.1_C5.1_H5.1_A5.1_[T5C]_[T6C]_F5.1_[T9C]_[A10C]_T5.1 (ssRNA) RNA: UUUGAUUAAUAUGAUAUCGUUCUUUCUUGUACCAUCCUUCUUUCUCGAUAUCAUAUUAAUCUUU	8.45
Ic_S2_P5E.1_K5.1_C5.1_H5.1_A5.1_[T5C]_[T6A]_[A7T]_F5.1_[T9A]_[A10C]_T5.1 (ssRNA) RNA: UUUGAUUAAUAUGAUAUCGUUCUUUCUUGUACAUUACUUCUUUCUCGAUAUCAUAUUAAUCUUU	0.894
Ic_S2_P5E.1_K5.1_C5.1_H5.1_A5.1_[T6C]_F5.1_[T9G]_[A10C]_T5.1 (ssRNA) RNA: UUUGAUUAAUAUGAUAUCGUUCUUUCUUGUAUCAUGCUUCUUUCUCGAUAUCAUAUUAAUCUUU	12.1
Ic_S2_P5E.1_K5.1_C5.1_H5.1_A5.1_[T5C]_[T6G]_[A7T]_F5.1_[T8G]_[A10T]_T5.1 (ssRNA) RNA: UUUGAUUAAUAUGAUAUCGUUCUUUCUUGUACGUGUUUUCUUUCUCGAUAUCAUAUUAAUCUUU	22.9
Ic_S2_P5E.1_K5.1_C5.1_H5.1_A5.1_[T5C]_[T6A]_F5.1_[T9C]_[A10T]_T5.1 (ssRNA) RNA: UUUGAUUAAUAUGAUAUCGUUCUUUCUUGUACAAUCUUUCUUUCUCGAUAUCAUAUUAAUCUUU	7.59
Ic_S2_P5E.1_K5.1_C5.1_H5.1_A5.1_[T6A]_[A7C]_F5.1_[T8C]_[T9C]_[A10G]_T5.1 (ssRNA) RNA: UUUGAUUAAUAUGAUAUCGUUCUUUCUUGUAUACCCGUUCUUUCUCGAUAUCAUAUUAAUCUUU	69.2
Ic_S2_P5E.1_K5.1_C5.1_H5.1_A5.1_[T5C]_[T6C]_[A7C]_F5.1_[T8A]_[T9G]_[A10C]_T5.1 (ssRNA) RNA: UUUGAUUAAUAUGAUAUCGUUCUUUCUUGUACCCAGCUUCUUUCUCGAUAUCAUAUUAAUCUUU	768
UCUCUUGGUAUAUUCUCUCUU (ssRNA) [Ib_S1_P4E.1_K4.1_C4.1_H4.1_[T1G]_A4.1_F4.1_[A9C]_T4.1]	> 2300
Ic_S2_P5E.1_K5.1_C5.1_H5.1_A5.1_[T6C]_[A7G]_F5.1_[T8A]_[A10C]_T5.1 (ssRNA) RNA: UUUGAUUAAUAUGAUAUCGUUCUUUCUUGUAUCGAUCUUCUUUCUCGAUAUCAUAUUAAUCUUU	1490
Ic_S2_P5E.1_K5.1_C5.1_H5.1_A5.1_[T5C]_[A7G]_F5.1_[T9G]_[A10T]_T5.1 (ssRNA) RNA: UUUGAUUAAUAUGAUAUCGUUCUUUCUUGUACUGUGUUUCUUUCUCGAUAUCAUAUUAAUCUUU	50.8
Ic_S2_P5E.1_K5.1_C5.1_H5.1_A5.1_[T6C]_[A7G]_F5.1_[T8C]_[T9C]_T5.1 (ssRNA) RNA: UUUGAUUAAUAUGAUAUCGUUCUUUCUUGUAUCGCCAUUCUUUCUCGAUAUCAUAUUAAUCUUU	844
Ic_S2_P5E.1_K5.1_C5.1_H5.1_A5.1_[T5C]_[T6C]_F5.1_[T8C]_[T9C]_[A10G]_T5.1 (ssRNA) RNA: UUUGAUUAAUAUGAUAUCGUUCUUUCUUGUACCACCGUUCUUUCUCGAUAUCAUAUUAAUCUUU	619
Ic_S2_P5E.1_K5.1_C5.1_H5.1_A5.1_[T5C]_[A7T]_F5.1_[T8A]_[T9C]_[A10G]_T5.1 (ssRNA) RNA: UUUGAUUAAUAUGAUAUCGUUCUUUCUUGUACUUACGUUCUUUCUCGAUAUCAUAUUAAUCUUU	623
Ic_S2_P5E.1_K5.1_C5.1_H5.1_A5.1_[T5A]_F5.1_[T8A]_[A10G]_T5.1 (ssRNA) RNA: UUUGAUUAAUAUGAUAUCGUUCUUUCUUGUAAUAAUGUUCUUUCUCGAUAUCAUAUUAAUCUUU	183
Ic_S2_P5E.1_K5.1_C5.1_H5.1_A5.1_[T5C]_[T6C]_[A7C]_F5.1_[A10T]_T5.1 (ssRNA) RNA: UUUGAUUAAUAUGAUAUCGUUCUUUCUUGUACCCUUUUUCUUUCUCGAUAUCAUAUUAAUCUUU	8.63

— article PMC9352680, “A comprehensive thermodynamic model for RNA binding by the Saccharomyces cerevisiae Pumilio protein PUF4”
